Entries after “also recorded” stand apart in the source; their conditions may differ. Positions of bridges follow the written chain, without caps; N, C: chain ends. Residues, ends and D or L forms follow the SMILES beside them. No end group written: not given here.
How the values were obtained:
IGFBP-1 [1] = molecular target: T1, IGFBP-1 (Homo sapiens, UniProt P08833); assay: BIAcore direct binding kinetics of peptides on immobilized IGFBP-1; design: made in house; host or cells: CHO cells; conditions: koff/kon, BIAcore kinetics; read-out: KD ± (SD or SE)
T1 sequence (P08833 26-259): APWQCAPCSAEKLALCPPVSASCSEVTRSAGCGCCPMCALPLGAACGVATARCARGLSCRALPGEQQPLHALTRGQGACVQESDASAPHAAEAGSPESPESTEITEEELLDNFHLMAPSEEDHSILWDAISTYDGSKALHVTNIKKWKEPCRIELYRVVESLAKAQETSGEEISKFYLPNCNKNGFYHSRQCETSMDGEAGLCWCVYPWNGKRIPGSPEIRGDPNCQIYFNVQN
Source text: WO 98/45427 published Oct. 15, 1998 discloses the preparation and characterization of the IGFBP-1 displacer peptide BP1-01 ([…]) (SEQ ID NO:26). The kinetics of BP1-01 peptide variants were examined in a BIAcore™ (BIAcore, Inc., Piscataway, N.J.) assay using IGFBP-1 covalently coupled via EDC/NHS (as described by the manufacturer) to a dextran chip. […] The latter implies a half-life for peptide dissociation from IGFBP-1 of approximately 28 sec. The association rate constant is moderately fast, consistent with the notion that the peptide may not undergo significant conformation change upon binding to IGFBP-1.
Inhibition assays for measuring relative potencies of peptides for inhibiting IGFBP-1 binding to IGF-I have been described (e.g., WO 98/45427, supra). Peptides described herein were of sufficient binding affinity to allow for direct measurement of binding affinities by surface plasmon resonance (SPR) using a BIACORE™ system. The direct binding kinetics of IGFBP-1 peptides were measured by injecting a series of 2-fold diluted peptides in running buffer (0.05% TWEEN 20™ in PBS) over a carboxy-methyl (CM) biosensor chip coupled with about 590-1000 RU of IGFBP-1 at a flow rate of 50 μl/min on a BIACORE 2000™ or BIACORE 3000™ surface-plasmon-resonance instrument. The immobilization of IGFBP-1 was performed through EDC/NHS chemistry as described by the manufacturer. Peptides were also injected through a flow cell containing IGFBP-3 as background control. Since the off-rate for most of the peptides is relatively fast (in the range of 2×10^−2 s^−1), off-rate measurement was set for 30 minutes. This allowed for regeneration of IGFBP-1 on the chip by simple dissociation, rather than by addition of eluent. For each dilution of peptides, a global fit of the sensorgram data was performed using a 1:1 Langmuir binding model.

IGFBP-1 [2] = molecular target: T1, IGFBP-1; assay: BIAcore competition assay: IGFBP-1 binding to IGF-I; design: made in house; host or cells: CHO cells; conditions: for Fold potency reduction IC50 (BP1-01) / IC50 (mut): locked-helix variants
Experimental: Two series of synthetic peptide variants were generated to determine which side chains of the BP1-01 peptide might contribute directly to binding IGFBP-1. In the first series an alanine-scanning approach (Cunningham and Wells, Science, 244: 1081-1085 (1989)) was used to remove that portion of each side chain beyond the beta carbon. The contribution of these atoms to the free energy of binding of the peptide to IGFBP-1 was then assessed by measuring the potency (IC50) of the variant for inhibiting IGFBP-1 binding to IGF-I or IGF-II in a BIAcore™ competition assay, analogous to that described for IGFBP-3.
Peptides were assayed in a BIAcore™ assay as described in WO 98/45427, supra. These inhibition assays (FIG. 35) compared the relative potency of these peptides for blocking the interaction of IGFBP-1 with IGF-1.
The peptide BP1-625 fraction was lyophilized and resuspended in 100 mM HEPES buffer, pH 7.2.

IGFBP-1 [3] = molecular target: T1, IGFBP-1; assay: competitive phage ELISA of IGF-1 mutants, IGFBP-1; type: binding; design: made in house; host or cells: CHO cells; conditions: phage display, soluble IGFBP-1 competitor
How it was run: (§1)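 Alanine-scan IGF-1 mutants on phage competed with soluble IGFBP-1 or IGFBP-3 (threefold dilutions over six logs, from 5 μM and 500 nM respectively) for binding to plates coated with 1 μg/ml of the same protein in PBS pH 7.2. Incubation was 1 h at room temperature in 0.5% Tween 20/PBS. Bound phage was detected by anti-phage/HRP ELISA; IC50 is the mean±SD of at least two clones.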

IGFBP-3 [4] = molecular target: T2, IGFBP-3 (Homo sapiens, UniProt P17936); assay: BIACORE kinetics: IGFBP-3 binding to immobilized IGF-1 variants
T2 construct: made in house
T2 sequence (P17936 28-291): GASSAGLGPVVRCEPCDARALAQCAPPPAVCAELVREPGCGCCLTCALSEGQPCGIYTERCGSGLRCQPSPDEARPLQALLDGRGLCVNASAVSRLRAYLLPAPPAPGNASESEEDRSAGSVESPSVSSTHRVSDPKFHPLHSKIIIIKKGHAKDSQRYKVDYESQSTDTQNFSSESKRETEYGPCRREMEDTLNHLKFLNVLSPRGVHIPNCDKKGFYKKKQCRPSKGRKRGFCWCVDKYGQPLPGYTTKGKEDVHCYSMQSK
Experimental: (§2) The binding affinities of the IGF variants for IGFBP-1 and IGFBP-3 were determined using a BIACORE™-2000 real time kinetic interaction analysis system (Biacore, Inc., Piscataway, N.J.) to measure association (ka) and dissociation (kd) rates. Carboxymethylated dextran biosensor chips (CM5, BIAcore Inc.) were activated with EDC (N-ethyl-N′-(3-dimethylaminopropyl)-carbodiimide hydrochloride) and NHS(N-hydroxysuccinimide) according to the supplier's instructions. For immobilization, IGF mutants in 20 mM sodium acetate, pH 4.8, were injected onto the biosensor chip at a concentration of 50 μg/ml to yield approximately 450-600 RU's (resonance-responce units) of covalently-coupled protein. Unreacted groups were blocked with an injection of 1 M ethanolamine. Kinetic measurements were carried out by injecting two-fold serial dilutions (starting at 1 μM) of either IGFBP-1 or IGFBP-3 in running buffer (PBS, 0.05% TWEEN 20™, 0.1% ovalbumin, 0.1% sodium azide) at 25 °C using a flow rate of 20 μl/min. Association rates (ka) and dissociation rates (kd) were calculated separately using a 1:1 Langmuir™ association model in the BIACORE™ evaluation software v. 3.0. The equilibrium dissociation constant (KD) was calculated as kd/ka.

IGFBP-3 [5] = molecular target: T2, IGFBP-3; assay: competitive phage ELISA of IGF-1 mutants, IGFBP-3; type: binding; conditions: phage display, soluble IGFBP-3 competitor
How it was run: as §1

IGFBP-1 [6] = assay: BIACORE kinetics: IGFBP-1 binding to immobilized IGF-1 variants; design: species or system human; conditions: from relative KD values
Experimental: as §2
(§3) For measurements of IGFBP-1 binding to IGF-1, kinetics experiments were conducted using a single-cysteine IGF-1 variant, Y31C, that was immobilized onto the sensor chip surface via a disulfide linkage (BIACORE™ System Manual Supplement, 5a-1, Pharmacia (1991)).

[7] = blood clearance, pharmacokinetics and tissue distribution of radiolabeled IGF-1 variants, IV in rats; type: in vivo, rat
[8] = tested on: human articular cartilage explants; assay: human articular cartilage explants from diseased joints: matrix synthesis (35S-sulfate uptake); type: cell-based; conditions: 40 ng/ml
Experimental: The metacarpophalangeal joint of a six-month old pig was cultured as described above for bovine articular cartilage in Example 8. This explant was cultured in media alone or in media with D12K, D12R, or wild-type IGF-1 (at 10 nM) alone or in the presence of IL-1α at 1 ng/ml, as described above. Human explants were from patients undergoing joint replacement surgery. Articular cartilage was harvested, aliquoted (40-45 mg/tube) and cultured as above. […] Fresh media was added on days 0, 1, 2, and 3. Matrix breakdown was determined by measuring the amount of proteoglycans in the media using the DMMB assay as set forth above. Matrix (proteoglycan) synthesis was determined by measuring ^35S-sulfate uptake as set forth above.
Human articular cartilage explants were cultured in media or treated with IGF-1 by itself or in combination with either BP3-40 or BP3-15 at 0.1 mg/ml as set forth above. Matrix breakdown was determined by measuring the release of proteoglycans into media as described above. Matrix synthesis was determined by counting the amount of ^35S-sulfate incorporated into the cartilage tissue as described above.
The same Material and Methods (for human tissue) were used as described above, using articular cartilage explants from human joints removed from patients undergoing joint replacement. These explants were cultured with IGF-1 alone at 40 ng/ml, or IGF-1 with BP1-17, BP3-15, or BP1-16 (0.1 mg/ml), or IGF-1 with buffer (HEPES).

IGFBP-1 [9] = molecular target: T1, IGFBP-1; assay: BIACORE kinetics: IGFBP-1 binding to immobilized IGF-1 variants; design: made in house; host or cells: CHO cells; conditions: 25 C
Experimental: as §2, §3

CC(C)C[C@@H]1NC(=O)[C@H](Cc2c[nH]c3ccccc23)NC(=O)[C@H](CCC(N)=O)NC(=O)[C@H](CC(C)C)NC(=O)[C@@H]2CCCN2C(=O)CNC(=O)[C@H](C)NC(=O)[C@H](CCCNC(=N)N)NC(=O)[C@@H](NC(=O)[C@@H](NC(=O)[C@H](CCCNC(=N)N)NC(=O)[C@H](C)NC(=O)[C@@H](N)CCC(=O)O)C(C)C)CSSC[C@@H](C(=O)N[C@@H](CCC(=O)O)C(=O)N[C@@H](CCCCN)C(=O)N[C@@H](Cc2ccc(O)cc2)C(=O)N[C@@H](Cc2ccccc2)C(N)=O)NC1=O [BP1-20] (H-EARVCRAGPLQWLCEKYF-NH2; disulfide 5-14; N-terminus assumed)
Kd (IGFBP-1 [1]): 33 ± 15 nM

CC(C)C[C@@H]1NC(=O)[C@H](Cc2c[nH]c3ccccc23)NC(=O)[C@H](CCC(N)=O)NC(=O)[C@H](CC(C)C)NC(=O)[C@@H]2CCCN2C(=O)CNC(=O)[C@H](C)NC(=O)[C@H](CCCNC(=N)N)NC(=O)[C@@H](NC(=O)CNC(=O)[C@@H](NC(=O)[C@H](CCC(=O)O)NC(=O)[C@@H](N)CO)C(C)C)CSSC[C@@H](C(=O)N[C@@H](CCC(=O)O)C(=O)N[C@@H](CCCCN)C(=O)N[C@@H](Cc2ccc(O)cc2)C(=O)N[C@@H](Cc2ccccc2)C(=O)N[C@@H](CO)C(=O)N[C@H](C(=O)N[C@@H](Cc2ccc(O)cc2)C(N)=O)[C@@H](C)O)NC1=O [BP1-21A] (H-SEVGCRAGPLQWLCEKYFSTY-NH2; disulfide 5-14; N-terminus assumed)
Kd (IGFBP-1 [1]): 41 ± 17 nM
IGF-I Inhibition IC50 (114)/IC50 (mut) (IGFBP-1 [2]; relative to BP1-14): 3

CC(C)C[C@@H]1NC(=O)[C@H](Cc2c[nH]c3ccccc23)NC(=O)[C@H](CCC(N)=O)NC(=O)[C@H](CC(C)C)NC(=O)[C@@H]2CCCN2C(=O)CNC(=O)[C@H](C)NC(=O)[C@H](CCCNC(=N)N)NC(=O)[C@@H](N)CSSC[C@@H](C(=O)N[C@@H](CCC(=O)O)C(=O)N[C@@H](CCCCN)C(=O)N[C@@H](Cc2ccc(O)cc2)C(=O)N[C@@H](Cc2ccccc2)C(=O)NCC(N)=O)NC1=O [BP1-01] (H-CRAGPLQWLCEKYFG-NH2; disulfide 1-10)
Fold potency reduction IC50 (BP1-01) / IC50 (mut) (IGFBP-1 [2]): 1

acRPLEWLAEKYFE (Ac-RPLEWLAEKYFE; bridge 4-12) [(i + 8)B]
Fold potency reduction IC50 (BP1-01) / IC50 (mut) (IGFBP-1 [2]): 8

acLEWLAEKYFE (Ac-LEWLAEKYFE; bridge 2-10) [(i + 8)A]
Fold potency reduction IC50 (BP1-01) / IC50 (mut) (IGFBP-1 [2]): >200

acRAGPLEWLAEKYFE (Ac-RAGPLEWLAEKYFE; bridge 6-14; not fully specified) [(i + 8)C]
Fold potency reduction IC50 (BP1-01) / IC50 (mut) (IGFBP-1 [2]): 6

acRAGPLEWLAEKYEG (Ac-RAGPLEWLAEKYEG; bridge 6-13; not fully specified) [(i + 7)D]
Fold potency reduction IC50 (BP1-01) / IC50 (mut) (IGFBP-1 [2]): 8

GQQSCAAGPLQWLCEHYFSTYGR (disulfide 5-14 (inferred)) [BP1-625]
improved potency over BP1-01 (IGFBP-1 [2]; 9-10 nM IGFBP-1): about 20 fold

F49A: IGF-1 variant wherein phenylalanine at position 49 is changed to alanine
IC50 (IGFBP-1 [3]): > 1000 nM
Binding to IGFBP-3 ka (IGFBP-3 [4]; 25 C): 2.7 ± 0.7 ×10^5 M^−1s^−1
IGFBP-3 ka (IGFBP-3 [4]; Table XV): 2.7 ± 0.7 ×10^5 M^−1
IGFBP-3 kd (IGFBP-3 [4]; Table XV): 17.1 ± 0.9 ×10^−4 s^−1
IC50 (IGFBP-3 [5]): 2.72 ± 1.11 nM
Specificity Relative BP-1 / Relative BP-3 (IGFBP-1 [6]): 16.7
rate of clearance from blood ([7]; radiolabeled, IV, rats): cleared at a faster rate compared to wild-type human IGF-1
kidney tissue-to-blood ratio ([7]; radiolabeled, IV, rats, 5, 15, 30 minutes): accumulate at statistically significant higher levels in the kidney compared to wild-type IGF-1; also recorded: accumulate at statistically significant higher ratios in the kidney compared to wild-type IGF-1
clearance ([7]; single IV dose in rats): 7.12 ± 2.08 mL/min/kg
matrix synthesis in diseased human articular cartilage [8]: stimulated matrix synthesis in diseased human articular cartilage
Binding to IGFBP-1 ka (IGFBP-1 [9]): 1.26 ± 0.8 ×10^4 M^−1s^−1
